Reference: patent US10428320B2, “Crystal structure of Staphylococcus aureus Autolysin E, method of producing the crystal and its use in screening methods” (J. Stefan Institute, priority 2015, dated 2019)
“Also recorded” adds a separate entry of the source.

Experiments:
[1] = test system: S. aureus purified peptidoglycan; assay: Degradation of Remazol Brilliant Blue labeled S. aureus peptidoglycan (cell wall substrate), colorimetric; assay type: biochemical, Staphylococcus aureus; details: mutants in comparison with the native enzyme
Description: • AtlE is 259 amino acid long protein encoded by the SAV2307 gene loci in the genome of S. aureus strain Mu50. The truncated sequences of glucosaminidase domains of AtlE, lacking the first 34 residues and glu AtlA from S1012 onwards, include additional four amino acids (SAAA, i.e. Ser-Ala-Ala-Ala) that belong to the recognition site of TEV protease. The nucleotide sequences were amplified from the genomic DNA of S. aureus Mu50 using KOD Hot Start Polymerase and cloned into pMCSG 7 plasmid in the frame with N-terminal His-Tag as described [Eschenfeldt et al., 2009]. The mutants were prepared by the overlap extension method [Ho et al., 1989]. The proteins were expressed in BL21(DE3) E. coli expression strain grown in YZM5052 auto induction medium. To facilitate the expression of proteins in soluble form, the cells were initially grown at 37° C. When optical density (OD) measured at 600 nm reached the value of 1, the cells were transferred to 25° C. After 16 hours the cells were pelleted by centrifugation (15 minutes at 7000× g), re-suspended in the buffer A ([…] Tris, 0.4 M NaCl, pH 7.5) supplemented with 1 mg/ml of lysozyme, and frozen and disrupted by the freezing thawing cycles and sonication. The proteins were purified from the cell lysate on AKTAxpress FPLC system (GE Healthcare) using two-step purification protocol. The first purification step was Ni^2+-affinity chromatography on HiTrap IMAC FF column (GE Healthcare) equilibrated in buffer A with 10 mM imidazole. […] 2. […] The degradation products were analyzed by mass spectroscopy. A single cleavage between the central NAG-NAM residues should indicate the classic N-acetyl-glucosaminidase activity by generating the NAM-NAG and NAM-NAGred disaccharides, whereas NAMred and NAG-NAM-NAGred would indicate the muraminidase activity. […] 3. Isolation of S. aureus Peptidoglycan • S. aureus cells were grown overnight in Brain Hearth Infusion Broth (BHI) (37° C., 250 rpm) pelleted by centrifugation (15 minutes at 6000× g), washed three times with the 30 mM Tris, 0.4 M NaCl buffer and then re-suspended in the same buffer. After heat inactivation, the insoluble pellet was re-suspended in 4% SDS and incubated 30 minutes at 80° C. After 30 minutes of centrifugation at 40,000× g, the pellet was re-suspended and washed six times in water. Proteins that remained associated with the peptidoglycan were digested overnight by incubation with trypsin (1 mg/ml) in 30 mM Tris, 0.4 M NaCl, 10 mM MgCl2, pH 7.5 buffer. After pelleting (30 minutes at 40000× g) peptidoglycan was treated overnight with 5 ml 40% aqueous hydrogen fluoride to remove teichoic acid, pelleted again (30 minutes at 40000× g) and washed extensively with water. Saturated suspension of the pure peptidoglycan solution in water was stored at −20° C. 4. Biochemical Peptidoglycan Degradation and Labeling with Remazol Brilliant Blue • For the colorimetric assays, peptidoglycan was labeled with Remazol Brilliant Blue as described [Odintsov et al., 2004]. In short, 50 ul of water suspension of Remazol Brilliant Blue labeled peptidoglycan was mixed with 10 ul of 1 M buffer solutions at pH of […] of 4 M NaCl, different amounts of enzymes and filled with water to the final volume […]. The final concentration of buffer and NaCl in the reaction mixture was therefore 100 mM.

[2] = Digestion of synthetic hexa-NAG substrate, products analyzed by mass spectroscopy; assay type: biochemical; details: mass spectroscopy of degradation products
Description: (§1) • AtlE is 259 amino acid long protein encoded by the SAV2307 gene loci in the genome of S. aureus strain Mu50. The truncated sequences of glucosaminidase domains of AtlE, lacking the first 34 residues and glu AtlA from S1012 onwards, include additional four amino acids (SAAA, i.e. Ser-Ala-Ala-Ala) that belong to the recognition site of TEV protease. The nucleotide sequences were amplified from the genomic DNA of S. aureus Mu50 using KOD Hot Start Polymerase and cloned into pMCSG 7 plasmid in the frame with N-terminal His-Tag as described [Eschenfeldt et al., 2009]. The mutants were prepared by the overlap extension method [Ho et al., 1989]. The proteins were expressed in BL21(DE3) E. coli expression strain grown in YZM5052 auto induction medium. To facilitate the expression of proteins in soluble form, the cells were initially grown at 37° C. When optical density (OD) measured at 600 nm reached the value of 1, the cells were transferred to 25° C. After 16 hours the cells were pelleted by centrifugation (15 minutes at 7000× g), re-suspended in the buffer A ([…] Tris, 0.4 M NaCl, pH 7.5) supplemented with 1 mg/ml of lysozyme, and frozen and disrupted by the freezing thawing cycles and sonication. The proteins were purified from the cell lysate on AKTAxpress FPLC system (GE Healthcare) using two-step purification protocol. […] The degradation products were analyzed by mass spectroscopy. […]

[3] = Digestion of synthetic tetrasaccharide substrate, products analyzed by mass spectroscopy; assay type: biochemical; details: mass spectroscopy of degradation products
Description: as §1

| Molecule | activity against the cell wall substrate (S. aureus peptidoglycan) [1] | also measured |
| --- | --- | --- |
| E138A (protein) MKKNFKLRISTLLLIVILVVFAVLLIVNETKLFKNDVNYSFDEAVSMQQGKGIVQTKEEDGKFVEANNNEIAKAMTISHKDNDMKYMDITEKVPMSESEVNQLLKGKGILENRGKVFLEAQEKYEVNVIYLVSHALVATGNGKSELAKGIKDGKKRYYNFFGIGAFDSSAVRSGKSYAEKEQWTSPDKAIIGGAKFIRNEYFENNQLNLYQMRWNPENPAQHQYASDIRWADKIAKLMDKSYKQFGIKKDDIRQTYYK | abolished activity | activity against the cell wall substrate (S. aureus peptidoglycan) ([1]; listed as E138): zero activity |
| Y201A (protein) MKKNFKLRISTLLLIVILVVFAVLLIVNETKLFKNDVNYSFDEAVSMQQGKGIVQTKEEDGKFVEANNNEIAKAMTISHKDNDMKYMDITEKVPMSESEVNQLLKGKGILENRGKVFLEAQEKYEVNVIYLVSHALVETGNGKSELAKGIKDGKKRYYNFFGIGAFDSSAVRSGKSYAEKEQWTSPDKAIIGGAKFIRNEAFENNQLNLYQMRWNPENPAQHQYASDIRWADKIAKLMDKSYKQFGIKKDDIRQTYYK | completely inactive | activity against the cell wall substrate (S. aureus peptidoglycan) ([1]; listed as Y201): zero activity; also recorded: abolished the enzymatic activity |
| D227A (protein) MKKNFKLRISTLLLIVILVVFAVLLIVNETKLFKNDVNYSFDEAVSMQQGKGIVQTKEEDGKFVEANNNEIAKAMTISHKDNDMKYMDITEKVPMSESEVNQLLKGKGILENRGKVFLEAQEKYEVNVIYLVSHALVETGNGKSELAKGIKDGKKRYYNFFGIGAFDSSAVRSGKSYAEKEQWTSPDKAIIGGAKFIRNEYFENNQLNLYQMRWNPENPAQHQYASAIRWADKIAKLMDKSYKQFGIKKDDIRQTYYK | halved activity |  |
| E145A (protein) MKKNFKLRISTLLLIVILVVFAVLLIVNETKLFKNDVNYSFDEAVSMQQGKGIVQTKEEDGKFVEANNNEIAKAMTISHKDNDMKYMDITEKVPMSESEVNQLLKGKGILENRGKVFLEAQEKYEVNVIYLVSHALVETGNGKSALAKGIKDGKKRYYNFFGIGAFDSSAVRSGKSYAEKEQWTSPDKAIIGGAKFIRNEYFENNQLNLYQMRWNPENPAQHQYASDIRWADKIAKLMDKSYKQFGIKKDDIRQTYYK | activity of native enzyme; also recorded: activity equivalent to the native enzyme |  |
| D167A (protein) MKKNFKLRISTLLLIVILVVFAVLLIVNETKLFKNDVNYSFDEAVSMQQGKGIVQTKEEDGKFVEANNNEIAKAMTISHKDNDMKYMDITEKVPMSESEVNQLLKGKGILENRGKVFLEAQEKYEVNVIYLVSHALVETGNGKSELAKGIKDGKKRYYNFFGIGAFASSAVRSGKSYAEKEQWTSPDKAIIGGAKFIRNEYFENNQLNLYQMRWNPENPAQHQYASDIRWADKIAKLMDKSYKQFGIKKDDIRQTYYK | halved activity |  |
| AtlE: recombinant glucosaminidase domain of Autolysin E of S. aureus Mu50, encoded by SAV2307 (protein) SAAANDVNYSFDEAVSMQQGKGIVQTKEEDGKFVEANNNEIAKAMTISHKDNDMKYMDITEKVPMSESEVNQLLKGKGILENRGKVFLEAQEKYEVNVIYLVSHALVETGNGKSELAKGIKDGKKRYYNFFGIGAFDSSAVRSGKSYAEKEQWTSPDKAIIGGAKFIRNEYFENNQLNLYQMRWNPENPAQHQYASDIRWADKIAKLMDKSYKQFGIKKDDIRQTYYK |  | cleavage of (NAG)6 [2]: not degraded at all; also recorded: cannot; digestion products / specificity on (NAM-NAG)2red [3]: only NAM-NAGred with Mw of 499.21 Da was found |
